This assay concerns the target OVA-specific T-cell antigen receptor of OT1 transgenic mice (mouse). Kind of assay: flow cytometry, OVA tetramer staining of peripheral blood CD8+ T cells of OT1 mice.

Substance OVA tetramer (peptide-MHC) came in with a proportion of CD8+ T cells specifically recognized by OVA (tetramer-positive) of 95.3%.

The record behind these values is US20210308260A1.
